Data on four molecules can be found in patent publication US20240343770A1 (SUNSHINE LAKE PHARMA, published 2024).

In one series the target is human GFRAL (human) (UniProt Q6UXV0). Kind of series: cell-based or functional assay.
Series [1] deals with the molecule itself. Kind of series: SEC of the purified Fc (self-association, aggregate state).
Series [2] deals with the molecule itself. In words: SEC of the purified Fc (self-association).

Residue numbers refer to the chain shown, from its start. Names and notes keep the numbering of the source.

Chain of human GFRAL (human) (Q6UXV0 19-394): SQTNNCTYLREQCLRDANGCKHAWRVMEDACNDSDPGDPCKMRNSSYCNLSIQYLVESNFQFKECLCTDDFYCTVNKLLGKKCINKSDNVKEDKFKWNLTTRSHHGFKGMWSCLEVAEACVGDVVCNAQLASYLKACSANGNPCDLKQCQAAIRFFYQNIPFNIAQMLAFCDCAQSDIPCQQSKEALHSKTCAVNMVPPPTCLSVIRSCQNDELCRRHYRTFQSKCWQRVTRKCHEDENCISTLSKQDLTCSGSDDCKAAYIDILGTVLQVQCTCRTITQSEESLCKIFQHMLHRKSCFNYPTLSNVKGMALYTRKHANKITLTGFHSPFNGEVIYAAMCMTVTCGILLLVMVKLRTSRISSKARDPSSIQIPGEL

As for “native GDF15 (from UniProt Q99988 197-308) (ligand)”, the Relative activity ratio (native GDF15 EC50 : construct EC50), phospho-ERK1/2 HTRF in HEK293T cells expressing human GFRAL and RET with human GFRAL (human) was 1.

B1: IgG4 Fc (AA, K439E) (other)
chain: EAAGGPSVFLFPPKPKDTLMISRTPEVTCVVVDVSQEDPEVQFNWYVDGVEVHNAKTKPREEQFNSTYRVVSVLTVLHQDWLNGKEYKCKVSNKGLPSSIEKTISKAKGQPREPQVYTLPPSQEEMTKNQVSLTCLVKGFYPSDIAVEWESNGQPENNYKTTPPVLDSDGSFFLYSRLTVDKSRWQEGNVFSCSVMHEALHNHYTQESLSLSLG
notes: One Fc polypeptide
On to B1, for which the binding result in series [1] is listed as “binds”.

B2: IgG4 Fc (AA, K439D) (other)
chain: B1 chain with E207D
notes: One Fc polypeptide
Turning to B2, the binding result in series [1] is “binds”.

B3: IgG4 Fc (AA, F405Q/Y407E) (other)
chain: B1 chain with F173Q, Y175E, E207K
notes: Control Fc; found as a monomer by SEC; also called monomeric Fc molecule
As for B3, the binding result in series [2] was “no binding”.
